Experimental data as given in patent publication US10995119B2, “Peptide exhibiting hydrolytic activity and use thereof” (Okinawa Institute of Science and Technology School …, priority 2016, dated 2021).

What was measured:
[1] = target: T1, hMMP7 42-50 (Homo sapiens, UniProt P09237); test: Hydrolysis activity against hMMP7 42-50 (HPLC, MS); format: biochemical
T1 construct: host or cells: synthetic peptide
Method: (§1) The present example examined whether a synthetic peptide JAL has hydrolysis activity against synthetic peptides derived from the prodomain of human matrix metalloprotease 7 (hMMP7).
(§2) The following JAL was used as a hydrolytic peptide, and hMMP7 42-50 or hMMP7 26-50 was used as a substrate.
(§3) First, to a buffer solution (Tris-HCl, pH 6.5, final concentration: 100 mmol/l), JAL (final concentration: 0.2 mmol/l) and the fragment peptide of hMMP7 (final concentration 0.05 mmol/l) were added. […] Thereafter, the reaction solution was subjected to HPLC, and the peaks of JAL and the fragment peptide of hMMP7 were examined. HPLC was performed under the following conditions.
(§4) Then, in HPLC, aliquots of the peaks were collected (each 20 μl), and fragment identification was performed by mass spectrometry (ABI QSTAR Elite system) (referred to as “MS” hereinafter). MS was performed by a flow injection method under the following conditions.

[2] = target: T2, hMMP7 26-50 (Homo sapiens, UniProt P09237); test: Hydrolysis activity against hMMP7 26-50 (HPLC, MS); format: biochemical
T2 construct: host or cells: synthetic peptide
T2 sequence (P09237 26-50 limits assumed): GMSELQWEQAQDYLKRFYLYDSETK
Method: as §1, §2, §3, §4

[3] = target: T3, hMMP7 1-42 (Homo sapiens, UniProt P09237); test: Hydrolysis activity against hMMP7 1-42, optimal pH; format: biochemical; settings: 5 days
T3 sequence (P09237 18-42): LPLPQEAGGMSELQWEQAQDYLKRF
Source text: The pH of the reaction solution was adjusted using an acetate buffer solution in the pH range from 3.5 to 6.0 and using a Tris-HCl buffer solution in the pH range from 6.5 to 8.0. In either case, the final concentration was set to 150 mmol/l.

[4] = Autodigestion of the catalytic peptide (HPLC, MS); format: biochemical
Method: as §3
Next, the mechanism of autodigestion was examined using various mutants of JAL as hydrolytic peptides. To a reaction solution containing each of the mutants of JAL, a protease inhibitor (trade name: Roche cOmplete, Roche) was added to cause a reaction. One tablet of the protease inhibitor was dissolved in 1 ml of Milli-Q water, and then, 50 μl of the resultant mixture was added to the reaction solution. […] As a result, the autodigestion of all the peptides subjected to the measurement was inhibited (FIG. 16).
Autodigestion in Box B was examined.
JAL-TA9 was reacted in the same manner except that a substrate was not added to examine the autodigestion of JAL-TA9.
The influence of an inhibitor on autodigestion of JAL-TA9 was examined. […] As the protease inhibitor, the serine protease inhibitor AEBSF, which inhibited the autodigestion of JAL 12-22 C19M in the item (6) in Example 4, was used.

[5] = target: SOD1 2-38 (Homo sapiens, UniProt P00441); test: Hydrolysis activity against SOD1 2-38; format: biochemical; settings: for hydrolysis activity of JAL mutants: Example 3 (1), substrate SOD1 2-38 or SOD1 2-12
Chain of SOD1 2-38 (P00441 2-38 limits assumed): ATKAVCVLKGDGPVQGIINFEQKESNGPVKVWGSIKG
Method: As a control, physiological saline (0.9 w/v %) was used instead of the buffer solution. […] Also, it is considered that physiological saline is suitable for storage of JAL before use, for example.
Next, an experiment was conducted to consider an optimal pH for activity using JAL as the hydrolytic peptide and SOD1 2-38 as a substrate.
Metal ions to be added to a reaction solution were Zn^2+, Ca^2+, Co^2+, or combinations thereof. The concentrations of the metal ions in the respective reaction solutions were as follows: 10 mmol/l for Ca^2+; and 5 μmol/l for the other metal ions.
(§5) In JAL 1-22 C19M and JAL 7-22 C19M, Cys residues contained in JAL form S—S bonds during a reaction, and this makes fragment analysis difficult. On this account, JAL 1-22 and JAL 7-22 were modified so as to substitute Cys residues by Met.

[6] = target: SOD1 12-38 (Homo sapiens, UniProt P00441); test: Hydrolysis activity against SOD1 12-38; format: biochemical; settings: pH 6.5 or 7.5, 3 or 4 days
Chain of SOD1 12-38 (P00441 12-38 limits assumed): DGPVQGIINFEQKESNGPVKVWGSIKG

[7] = target: SOD1 53-70 (Homo sapiens, UniProt P00441); test: Hydrolysis activity against SOD1 53-70; format: biochemical; settings: pH 6.5 or 7.5, 3 or 4 days
[8] = target: SOD1 115-154 (Homo sapiens, UniProt P00441); test: Hydrolysis activity against SOD1 115-154; format: biochemical; settings: pH 6.5 or 7.5, 3 or 4 days
Chain of SOD1 115-154 (P00441 115-154): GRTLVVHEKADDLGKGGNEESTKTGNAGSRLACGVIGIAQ

[9] = target: SOD1 2-12 (Homo sapiens, UniProt P00441); test: Hydrolysis activity against SOD1 2-12; format: biochemical; settings: for hydrolysis activity of JAL mutants: Example 3 (1), substrate SOD1 2-38 or SOD1 2-12
Source text: as §5

[10] = target: Aβ1-20 (Homo sapiens, UniProt P05067); test: Hydrolysis activity against Aβ1-20
Method: (§7) Further, any change in activity caused by addition of human serum albumin (HSA, Wako Pure Chemical Industries, Ltd., final concentration 0.025%) also was measured.
(§8) As substrates, Aβ42 in the form of soluble powder (authentic sample, Peptide Institute Inc.) and fragment peptides thereof, namely, Aβ1-20, Aβ11-29, and soluble Aβ28-42, were used. […] In the case of MS analysis, the MS analysis was performed after applying 20 μl of the reaction solution to HPLC and collecting an aliquot of the peak.
(§9) The present experiment examined activity against Aβ-Fs in Example 7.
(§10) As substrates, the same Aβ1-20 and Aβ11-29 as used in Example 7 were used.

[11] = target: T4, human serum albumin (HSA) (Homo sapiens, UniProt P02768); test: Cleavage of HSA as substrate; format: biochemical; settings: HSA 0.025%
T4 construct: purchased Wako Pure Chemical Industries, Ltd
Method: (§6) On the other hand, by adding either HSA or BSA to the reaction solution, autodigestion of JAL 7-22 C 19M was […]. […] Since serum albumin is present in the body, it is considered that the hydrolytic peptide is suitable for use in the body. In experiments to be described below, the hydrolysis activity of JAL was measured in a reaction solution containing HSA.

[12] = target: T5, bovine serum albumin (BSA) (Bos taurus, UniProt P02769); test: Cleavage of BSA as substrate; format: biochemical; settings: BSA 0.025%
T5 construct: purchased Wako Pure Chemical Industries, Ltd
T5 sequence (P02769 25-607): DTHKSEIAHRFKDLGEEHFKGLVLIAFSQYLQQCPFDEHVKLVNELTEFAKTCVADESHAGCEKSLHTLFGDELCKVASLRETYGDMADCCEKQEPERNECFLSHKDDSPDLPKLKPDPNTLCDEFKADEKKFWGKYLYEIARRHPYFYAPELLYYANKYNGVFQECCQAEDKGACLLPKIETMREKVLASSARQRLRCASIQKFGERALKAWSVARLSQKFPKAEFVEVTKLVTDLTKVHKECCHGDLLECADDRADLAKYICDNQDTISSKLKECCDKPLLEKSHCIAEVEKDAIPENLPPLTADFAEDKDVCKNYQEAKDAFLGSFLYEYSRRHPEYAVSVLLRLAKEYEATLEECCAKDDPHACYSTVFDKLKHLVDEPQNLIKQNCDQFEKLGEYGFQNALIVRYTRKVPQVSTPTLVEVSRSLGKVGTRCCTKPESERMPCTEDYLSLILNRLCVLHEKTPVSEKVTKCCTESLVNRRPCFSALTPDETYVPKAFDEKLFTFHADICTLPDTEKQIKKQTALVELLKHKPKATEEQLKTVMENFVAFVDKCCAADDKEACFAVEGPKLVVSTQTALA
Method: as §6

[13] = target: Aβ1-19 (Homo sapiens, UniProt P05067); test: Hydrolysis activity against Aβ1-19
Method: The present experiment was conducted to consider an optimal concentration of a hydrolytic peptide relative to a substrate, using JAL 7-22 C19M as the hydrolytic peptide and Aβ1-19 as the substrate. The measurement of activity was performed in the same manner as in the above item (1), except that the incubation time was set to 0 days, 3 days, or 5 days.

[14] = target: Aβ28-42 (Homo sapiens, UniProt P05067); test: Hydrolysis activity against Aβ28-42; format: biochemical; settings: reaction solution II; 1 day, 5 days
[15] = target: Aβ11-29 (Homo sapiens, UniProt P05067); test: Hydrolysis activity against Aβ11-29; settings: reaction solution II; 1 day, 5 days
Method: as §7, §8
As a substrate, Aβ11-29, which is a fragment peptide of Aβ42, was used. […] In the case of MS analysis, the MS analysis was performed after applying 20 μl of the reaction solution after the reaction for 6 days to HPLC and collecting an aliquot of the peak.
as §9
The reaction solution V shown in FIG. 52 was incubated at 37° C. for a predetermined time, and autodigestion of ANA-YA4 (YRMI) and cleavage of Aβ11-29 were examined.
A reaction solution VI shown in FIG. 52 was incubated at 37° C. for a predetermined time, and cleavage of Aβ1-20 and Aβ11-29 by ANA-SA5 was examined.
as §10
The present example examined autodigestion and activity against Aβ-F of JAL 12-17 (YKGSGF) and JAL 12-16 (YKGSG). […] As a substrate, the same Aβ11-29 as used in Example 7 was used. The autodigestion was examined by causing the reaction in the same manner, except that the substrate was not added.

[16] = target: soluble Aβ1-42 (Aβ42 authentic sample) (Homo sapiens, UniProt P05067); test: Hydrolysis activity against soluble Aβ1-42 (authentic sample); settings: authentic sample Aβ42, reaction solution III
Method: as §8
Aβ42 was used as a substrate. […] In the case of MS analysis, the MS analysis was performed after applying 20 μl of the reaction solution after the reaction for 7 days to HPLC and collecting an aliquot of the peak.

[17] = JAL 0.2 mmol/l, substrate 0.05 mmol/l, Tris-HCl pH 6.5, 37° C., 14 days, HPLC

With KYEGHWYPEKPYKGSGFRCIHI [JAL] the “cleavage of substrate, fragment identification by MS” value ([1]; 16 days) was “cleaved at a plurality of sites”, the “hydrolysis activity against hMMP7 42-50” value [1, 17] was “has activity” and the “cleavage of substrate, fragment identification by MS” value ([2]; 16 days) was “cleaved at a plurality of sites”. The “hydrolysis activity against hMMP7 26-50” value [2, 17] was “has activity”, the “hydrolysis activity against hMMP7 1-42” value ([3]; pH 3.5 to 6.0, acetate buffer 150 mmol/l) was “exhibited activity” and the “hydrolysis activity against hMMP7 1-42” value ([3]; pH 6.5 to 8.0, Tris-HCl 150 mmol/l) was “the results obtained were the same as that obtained after a lapse of 0 days from the start of the reaction”. For the same sequence, the autodigestion ([4]; Tris-HCl pH 6.5, 37° C., 14 days, with hMMP7 fragment) was “autodigestion of JAL occurred”, the “cleavage sites, fragment identification by MS” value [5] was “a plurality of sites indicated with arrows were cleaved” and the “hydrolysis activity against SOD1 2-38” value ([5]; Tris buffer solution at various concentrations, 1 or 4 days) was “exhibited activity regardless of the concentration of the Tris buffer solution”. For the same sequence, the “hydrolysis activity against SOD1 2-38” value ([5]; assay buffer solution (50 mmol/l Tris-HCl pH 7.5, NaCl, Ca, Zn, Briji35, NaN3) vs Tris buffer pH 6.5, 0, 1, 3 days) was “cleavage by JAL was observed earlier”, the “hydrolysis activity against SOD1 2-38” value ([5]; only Milli-Q water (0 mmol/l Tris)) was “did not exhibit activity” and the “hydrolysis activity against SOD1 2-38” value ([5]; pH 6.5 or 7.5, 3 or 4 days) was “strong activity”. The “hydrolysis activity against SOD1 2-38” value ([5]; pH 6.5 to 8.0 in increments of 0.5, 1 day) was “exhibited activity at all the pH values”, the “hydrolysis activity against SOD1 2-38” value ([5]; physiological saline (0.9 w/v %) instead of buffer) was “did not exhibit activity” and the “hydrolysis activity against SOD1 2-38” value ([5]; with or without Zn2+, Ca2+, Co2+, 1 day) was “exhibited activity regardless of the presence or absence of the metals”. For the same sequence, the “hydrolysis activity against SOD1 12-38” value [6] was “has activity”, the “hydrolysis activity against SOD1 53-70” value [7] was “strong activity” and the “hydrolysis activity against SOD1 115-154” value [8] was “did not exhibit activity”. For the same sequence, the “cleavage sites, fragment identification by MS” value [9] was “a plurality of sites indicated with arrows were cleaved”, the “hydrolysis activity against SOD1 2-12” value ([9]; pH 6.5 or 7.5, 3 or 4 days) was “has activity” and the “hydrolysis activity against Aβ1-20” value ([10]; Example 3 (2), (6)) was “has activity”. The “hydrolysis activity against Aβ1-20” value ([10]; PBS (pH 7.4), 3 or 5 days) was “exhibited activity” and the “hydrolysis activity against Aβ1-20” value ([10]; phosphate buffer solution, 3 or 5 days) was “did not exhibit activity”.
With YPEKPYKGSGFRMIHI [JAL 7-22 C19M] the “autodigestion in presence of protease inhibitor” value ([4]; HSA added, Roche cOmplete or AEBSF) was “fragments generated by autodigestion disappeared”, the “autodigestion, effect of albumin” value ([4]; HSA or BSA (0.025%) added) was “enhanced” and the “hydrolysis activity of JAL mutants” value [5] was “exhibited hydrolysis activity”. The “hydrolysis activity of JAL mutants” value [9] was “exhibited hydrolysis activity”, the “cleavage of albumin as substrate” value [11] was “cleavage by JAL was not observed” and the “cleavage of albumin as substrate” value [12] was “cleavage by JAL was not observed”. For the same sequence, the “hydrolysis activity against Aβ1-20” value ([10]; Example 3 (2), (6)) was “exhibited activity”.
With KYEGHWYPEKPYKGSGFRMIHI [JAL 1-22 C19M] the “hydrolysis activity of JAL mutants” value [5] was “exhibited hydrolysis activity”, the “hydrolysis activity of JAL mutants” value [9] was “exhibited hydrolysis activity” and the “hydrolysis activity against Aβ1-19” value ([13]; CH3OH or CH3CN 10%, 3 or 5 days) was “did not exhibit activity”. For the same sequence, the “hydrolysis activity against Aβ1-19” value ([13]; DMSO 10%, 3 or 5 days) was “exhibited activity”.
For SKGQAYRMI [ANA-TA9], the autodigestion ([4]; reaction solution I, 37° C.) was “autodigestion of ANA-TA9 was observed”, the “autodigestion in presence of protease inhibitor” value ([4]; reaction solution IV, 6 hours) was “inhibited by the protease inhibitor” and the “cleavage of Aβ-Fs” value [14] was “could cleave all the Aβ-Fs”. For the same sequence, the “cleavage of Aβ-Fs” value ([10]; reaction solution II, 1 day, 5 days) was “could cleave all the Aβ-Fs”, the “cleavage of Aβ-Fs” value [15] was “could cleave all the Aβ-Fs” and the “cleavage of Aβ42” value [16] was “could cleave Aβ42”.
In the case of YPEKPYKGSGFRCIHI [JAL 7-22], the “hydrolysis activity of JAL mutants” value [5] was “exhibited hydrolysis activity”, the “hydrolysis activity of JAL mutants” value [9] was “exhibited hydrolysis activity” and the “hydrolysis activity against Aβ1-19” value ([13]; high peptide concentration) was “lowered”. The “hydrolysis activity against Aβ1-19” value ([13]; substrate:peptide 1:1 (0.05 mmol/l) and 1:4 (0.2 mmol/l), 3 or 5 days) was “strong activity”.
